Source: patent US20040053355A1, “Modular approach to on-line synthesis, drug discovery and biochemical transformations using immobilized enzyme reactors” (priority 2000, published 2004)

Key:
[1] = substrate: NCCc1ccc(O)cc1; test: On-line DBH-Glut-P immobilized enzyme reactor (DBH-Glut-P IMER) HPLC system; assay type: biochemical, bovine; conditions: other: DBH-IMER (DBH-Glut-P IMER), 0.3 ml/min, contact time 10 min, 37° C.
Excerpt: DBH immobilized on the IAM or Glut-P stationary phase was packed into a 1 cm×10 mm guard (Regis Technologies). The guard was placed in a holder and the resulting column connected to a chromatographic system. THE DBH-IAM-IMER and the DBH-Glut-P-IMER was washed with sodium acetate buffer [0.1M, pH 5.5] and sodium acetate buffer [0.1M, pH 6.0], respectively. The eluent from both IMERs was collected in order to determine if any of the DBH was being washed off the columns. The Biorad assay was utilized to measure the amount of non-immobilized enzyme. When the columns were not in use they were washed with sodium acetate buffer at the respective pHs and stored at 4° C.
Pumps 2 and 3 on system 2 and 3 were stopped. […]
The enzymatic activity on the DBH-Glut-P was determined by quantification of the amount of product formed with a given substrate. […] The kinetic parameters were determined using standard Michaelis-Menten approach. […] The rates of reaction (Vmax) were calculated using […]mol/mg/min. Results are expressed as mean±standard error of the mean (SEM). […]

[2] = substrate: NCCc1ccc(O)cc1; test: DBH immobilized onto Glut-P stationary phase (DBH-Glut-P, DBH-Glut-P-SP), batch assay; assay type: biochemical, bovine; conditions: other: DBH-Glut-P (DBH-Glut-P-SP); 37.0 °C
Method: The enzyme was assayed as follows: four different solutions were prepared A, B, C and D (final concentration). (A) 500 μL of enzyme solution (10 μg/ml); B: 275 μL sodium acetate buffer (10 mM, pH 5.5), 50 μL cupric sulphate (5 μM); C: 25 μL catalase (5 μg/ml), 50 μL ascorbic acid (10 mM), 50 μl sodium fumarate (10 mM); D: 50 μl substrate (5 mM). Solution B was added to solution A, the resulting solution was mixed for 1 min. Solution C was added and the resulting solution was mixed for an additional minute. The reaction was started with the addition of the substrate (D), after which the reaction solution was incubated for 5 min at 37° C. in a shaking bath. […]
The packing material was washed three times with sodium acetate buffer (0.1M, pH 6). […] The enzyme solution (8-10 μg in 1 ml sodium acetate buffer] was added to the packing material, the mixture was vortexed for 2 min and then placed on a shaker/rotator for 6 h at ambient temperature. At the end of 6 h, the suspension was centrifuged, the supernatant decanted and the packing material washed three additional times with the buffer. The amount of residual enzyme was determined utilizing the same procedure as that carried out for the enzyme immobilized onto IAM.

Protein	Km [1] [µM]	Vmax [1] [µmol/mg/min]	Km [2] [µM]	Vmax [2] [µmol/mg/min]
DBH-Glut-P IMER (immobilized dopamine beta-hydroxylase) (Bos taurus) (protein, purchased) MQVPSPSVREAASMYGTAVAVFLVILVAALQGSAPAESPFPFHIPLDPEGTLELSWNISYAQETIYFQLLVRELKAGVLFGMSDRGELENADLVVLWTDRDGAYFGDAWSDQKGQVHLDSQQDYQLLRAQRTPEGLYLLFKRPFGTCDPNDYLIEDGTVHLVYGFLEEPLRSLESINTSGLHTGLQRVQLLKPSIPKPALPADTRTMEIRAPDVLIPGQQTTYWCYVTELPDGFPRHHIVMYEPIVTEGNEALVHHMEVFQCAAEFETIPHFSGPCDSKMKPQRLNFCRHVLAAWALGAKAFYYPEEAGLAFGGPGSSRFLRLEVHYHNPLVITGRRDSSGIRLYYTAALRRFDAGIMELGLAYTPVMAIPPQETAFVLTGYCTDKCTQLALPASGIHIFASQLHTHLTGRKVVTVLARDGRETEIVNRDNHYSPHFQEIRMLKKVVSVQPGDVLITSCTYNTEDRRLATVGGFGILEEMCVNYVHYYPQTQLELCKSAVDPGFLHKYFRLVNRFNSEEVCTCPQASVPEQFASVPWNSFNREVLKALYGFAPISMHCNRSSAVRFQGEWNRQPLPEIVSRLEEPTPHCPASQAQSPAGPTVLNISGGKG	2760	0.079		
dopamine beta-hydroxylase immobilized onto Glut-P (DBH-Glut-P) (Bos taurus) (protein, purchased) MQVPSPSVREAASMYGTAVAVFLVILVAALQGSAPAESPFPFHIPLDPEGTLELSWNISYAQETIYFQLLVRELKAGVLFGMSDRGELENADLVVLWTDRDGAYFGDAWSDQKGQVHLDSQQDYQLLRAQRTPEGLYLLFKRPFGTCDPNDYLIEDGTVHLVYGFLEEPLRSLESINTSGLHTGLQRVQLLKPSIPKPALPADTRTMEIRAPDVLIPGQQTTYWCYVTELPDGFPRHHIVMYEPIVTEGNEALVHHMEVFQCAAEFETIPHFSGPCDSKMKPQRLNFCRHVLAAWALGAKAFYYPEEAGLAFGGPGSSRFLRLEVHYHNPLVITGRRDSSGIRLYYTAALRRFDAGIMELGLAYTPVMAIPPQETAFVLTGYCTDKCTQLALPASGIHIFASQLHTHLTGRKVVTVLARDGRETEIVNRDNHYSPHFQEIRMLKKVVSVQPGDVLITSCTYNTEDRRLATVGGFGILEEMCVNYVHYYPQTQLELCKSAVDPGFLHKYFRLVNRFNSEEVCTCPQASVPEQFASVPWNSFNREVLKALYGFAPISMHCNRSSAVRFQGEWNRQPLPEIVSRLEEPTPHCPASQAQSPAGPTVLNISGGKG			1040	0.112
